Experimental findings from patent US20100075374A1, “Methods for capturing nascent proteins” (AMBERGEN, INC., priority 2007, published 2010) are described below.

Assay [1] has as its target T1, human recombinant ZAP-70 tyrosine kinase (Homo sapiens, UniProt P43403).
T1 construct: purchased Invitrogen Corporation
T1 sequence (P43403 1-619): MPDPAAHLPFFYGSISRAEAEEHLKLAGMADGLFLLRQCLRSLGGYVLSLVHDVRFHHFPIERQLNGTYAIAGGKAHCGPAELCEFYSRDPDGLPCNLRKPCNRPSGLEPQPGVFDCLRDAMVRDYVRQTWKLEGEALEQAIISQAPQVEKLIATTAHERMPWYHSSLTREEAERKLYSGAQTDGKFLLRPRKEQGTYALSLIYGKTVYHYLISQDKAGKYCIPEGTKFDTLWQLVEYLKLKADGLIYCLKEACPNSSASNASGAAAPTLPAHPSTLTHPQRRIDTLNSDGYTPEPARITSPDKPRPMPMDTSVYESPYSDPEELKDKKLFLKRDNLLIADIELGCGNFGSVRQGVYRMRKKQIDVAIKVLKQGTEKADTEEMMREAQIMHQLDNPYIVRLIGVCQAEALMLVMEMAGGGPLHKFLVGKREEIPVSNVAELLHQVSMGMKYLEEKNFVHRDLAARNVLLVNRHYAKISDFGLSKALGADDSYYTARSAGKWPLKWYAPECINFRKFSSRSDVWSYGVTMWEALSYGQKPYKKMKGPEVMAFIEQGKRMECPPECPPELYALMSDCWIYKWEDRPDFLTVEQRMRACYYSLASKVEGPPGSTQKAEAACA
Nature of the assay: kinase substrate profiling on photo-transferred proteins, phosphotyrosine detection. It is filed as biochemical. The following applies: plus ATP kinase reaction, 30 min at 37° C.

Assay [2] deals with T2, human recombinant Src pp^60 tyrosine kinase (Homo sapiens, UniProt P12931).
T2 construct: purchased Invitrogen Corporation
Described as above. It is filed as biochemical. The settings on record: plus ATP kinase reaction, 30 min at 37° C.

The next assay deals with T3, PKCα (Homo sapiens, UniProt P17252).
T3 construct: isolate and photo-release endogenous PKCa from the undiluted detergent fractionated HeLa cell extracts; endogenous in cells; host or cells: HeLa cells (ATCC)
The assay can be described thus: PMA mediated PKCα sub-cellular translocation measured by kinase activity after photocleavable antibody isolation. The settings on record: HeLa cells, 200 nM PMA for 5 min, n=4. It is filed as cell-based. As to the method: Cultured HeLa cells (ATCC; Manassas, Va.) were stimulated for 5 min with 200 nM Phorbol-12-Myristate-13-Acetate (PMA; EMD Biosciences, Inc., San Diego, Calif.) and subsequently detergent fractionated into sub-cellular compartments according to reported procedures [Ramsby et al. (1994) Electrophoresis 15, 265-277; Ramsby & Makowski. (1999) Methods Mol Biol 112, 53-66; Chiang et al. (2000) J Biochem Biophys Methods 46, 53-68]. PMA is a potent activator of PKCα and is well known to cause translocation of the kinase from the cytosolic to the membrane sub-cellular compartments [Ross & Joyner. (1997) Endothelium 5, 321-332; Bazan & Rapoport. (1996) JPharmacol Toxicol Methods 36, 87-95; Yazlovitskaya & Melnykovych. (1995) Cancer Lett 88, 179-183].
A photocleavable antibody conjugated solid affinity matrix was prepared and used to isolate and photo-release the antigen into solution essentially as described in Example 2 except that in this case, a photocleavable anti-IgG secondary antibody was used to immobilize the unlabeled primary antibody onto the solid affinity matrix. This antibody affinity matrix was used to isolate and photo-release endogenous PKCa from the undiluted detergent fractionated HeLa cell extracts. […]

Another assay concerns the target T4, MDM2 bait (Homo sapiens, UniProt Q00987).
T4 construct: made in house; host or cells: rabbit reticulocyte lysate, coupled cell-free transcription/translation
The assay can be described thus: p53-MDM interaction assay, pre-formed complexes of cell-free expressed proteins, contact photo-transfer. The following applies: complexes formed before contact photo-transfer. The assay is classed as binding. Here is the method:
BODIPY-FL-tRNA^COMPLETE was used for fluorescence labeling (at 2 μM) instead of BODIPY-FL-tRNA^Lys. The cell-free expressed p53 “probe” was labeled only with BODIPY-FL using the BODIPY-FL-tRNA^COMPLETE and was not labeled with PC-biotin in any way. […] The “bait” proteins were labeled only with PC-Biotin-tRNA^COMPLETE (at 1 μM) and not with BODIPY-FL in any way. The Translation Dilution Buffer (TDB) used to stop the reaction and prepare the sample contained no BSA or other protein carrier, 10 mM DTT instead of 2 mM and additionally contained 20 mM EDTA added from a 500 mM pH 8.0 stock and 4 mM cycloheximide (Sigma-Aldrich, St. Louis, Mo.) added from a 355 mM stock in DMSO.
All steps were performed at +4° C. or on an ice water bath and all reagents and samples were also kept under these conditions during the procedure. […] To facilitate addition of small bead volumes to the samples, the beads were initially prepared to a 10% (v/v) bead suspension with 5 mM DTT in PBS. The samples, now 80 μL each, were then mixed with 10 μL of the 10% (v/v) bead suspension corresponding to addition of 1 μL packed bead volume. After capture on the NeutrAvidin beads for 1 hr, beads were washed by mixing 3× briefly (briefly=5 sec vortex mix) in 400 bead volumes per wash of PBS pH 7.5 and 5 mM DTT. […]

T4 sequence (Q00987 whole entry): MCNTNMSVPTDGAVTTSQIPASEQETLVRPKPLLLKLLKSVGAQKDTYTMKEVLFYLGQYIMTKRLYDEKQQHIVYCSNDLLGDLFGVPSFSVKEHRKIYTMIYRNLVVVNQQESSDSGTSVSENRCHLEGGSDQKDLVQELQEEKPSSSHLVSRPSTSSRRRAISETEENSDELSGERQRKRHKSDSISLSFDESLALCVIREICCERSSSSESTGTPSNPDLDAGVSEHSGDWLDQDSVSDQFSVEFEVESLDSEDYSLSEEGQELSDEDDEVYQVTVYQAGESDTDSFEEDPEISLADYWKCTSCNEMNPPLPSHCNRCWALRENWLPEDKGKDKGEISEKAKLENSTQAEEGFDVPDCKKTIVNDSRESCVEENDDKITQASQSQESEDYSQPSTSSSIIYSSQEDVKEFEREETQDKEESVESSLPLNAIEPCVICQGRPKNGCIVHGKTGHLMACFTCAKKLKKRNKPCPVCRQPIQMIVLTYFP

For the compound “CK: cell-free expressed human casein kinase II, contact photo-transferred to microarray”, the “phosphorylation by ZAP-70” value in assay [1] is “does not phosphorylate”. In addition, the “phosphorylation by Src pp^60” value in assay [2] was “significant phosphorylation”.

With `CCCCCCCCCCCCCC(=O)O[C@@H]1[C@@H](C)[C@@]2(O)[C@@H](C=C(CO)C[C@]3(O)C(=O)C(C)=C[C@@H]23)[C@@H]2C(C)(C)[C@]12OC(C)=O` [PMA, Phorbol-12-Myristate-13-Acetate], on PKCα (baseline 21±2% membrane), the “PKCα distribution, membrane, based on kinase activity” value is reported as 84±3%. Moreover, the “PKCα distribution, cytosol, based on kinase activity” value on PKCα (baseline 79±7% cytosol) stood at 16±4%.

With “p53 “probe”: cell-free expressed human p53 labeled only with BODIPY-FL using BODIPY-FL-tRNA COMPLETE”, in the assay with MDM2 bait, the “binding of cell-free expressed p53 probe to MDM bait” value is listed as “selective binding”.
